Measured values published in US20210230266A1 (SINGAPORE HEALTH SERVICES PTE, published 2021).

T1: Human IL-11 (human, UniProt P20809 22-199)
T1 construct: Recombinant human IL-11 (GenScript Cat. No. Z03108-1) or IL-11 secreted by human cells; the mature form is said to have 178 residues; also called recombinant human IL-11; endogenously produced IL-11
T1 sequence: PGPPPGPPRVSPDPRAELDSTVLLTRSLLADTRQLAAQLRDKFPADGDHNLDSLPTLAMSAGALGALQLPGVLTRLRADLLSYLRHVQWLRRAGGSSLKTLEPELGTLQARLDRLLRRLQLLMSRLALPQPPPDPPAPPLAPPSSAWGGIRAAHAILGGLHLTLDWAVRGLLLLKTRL

T2: FLAG-tagged human IL-11 expressed at the surface of transiently transfected cells (human, UniProt P20809 22-199)
T2 construct: also called IL-11 expressing HEK cells; target cells expressing human IL-11 at their surface; not shown: FLAG tag added to the N-terminus
T2 sequence: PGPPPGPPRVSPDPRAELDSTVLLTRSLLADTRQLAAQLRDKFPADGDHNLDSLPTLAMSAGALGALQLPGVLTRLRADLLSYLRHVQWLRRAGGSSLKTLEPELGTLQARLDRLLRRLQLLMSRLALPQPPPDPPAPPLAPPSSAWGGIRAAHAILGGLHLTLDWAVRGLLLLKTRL

T3: Mouse IL-11 (mouse, UniProt P47873 22-199, limits assumed)
T3 construct: also called murine IL-11; recombinant murine IL-11
T3 sequence (looked up): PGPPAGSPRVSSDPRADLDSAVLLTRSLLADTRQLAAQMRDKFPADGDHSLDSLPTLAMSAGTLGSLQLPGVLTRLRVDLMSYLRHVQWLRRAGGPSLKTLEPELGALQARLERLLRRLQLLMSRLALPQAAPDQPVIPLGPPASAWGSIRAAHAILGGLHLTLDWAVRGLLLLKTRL


Experiments:
Human IL-11 [1] = target: T1, Human IL-11; experiment: told from inhibition of MMP2 secretion by TGFB1-stimulated primary human atrial fibroblasts (FIG. 54A)
Procedure: Primary human atrial fibroblasts were incubated with TGFB1 (5 ng/ml) and varying concentrations of humanised 3C6 clones. MMP2 secretion into the supernatant by human atrial fibroblasts was assessed to estimate the % of inhibition.

[2] = target: T2, FLAG-tagged human IL-11 expressed at …; experiment: flow cytometry, hybridoma supernatant on cells transfected with pB1-IL11-hum.FL
[3] = target: T2, FLAG-tagged human IL-11 expressed at …; experiment: flow cytometry, hybridoma supernatant on cells transfected with pB1-IL11-hum.FL; relative to the anti-FLAG positive control (100%)
Human IL-11 [4] = target: T1, Human IL-11; experiment: SPR, BIAcore T200; sensorgrams with association to 250 s and dissociation to 750 s
Procedure: (§1) Real-time binding kinetics of anti-IL-11 antibody BSN-3C6 to human and mouse IL-11 were measured by surface plasmon resonance (SPR) using a BIAcore T200 system (GE Healthcare, USA). The association and dissociation were measured for 250 s and 500 s respectively. The equilibrium binding constant KD was determined by the ratio of the binding rate constants kd/ka.

Mouse IL-11 [5] = target: T3, Mouse IL-11; experiment: SPR, BIAcore T200; KD from kd/ka
Procedure: as §1

Human IL-11 [6] = target: T1, Human IL-11; experiment: SPR, BIAcore T200; KD from kd/ka
Procedure: as §1

Mouse IL-11 [7] = target: T3, Mouse IL-11; experiment: real-time binding kinetics; the text says SPR (BIAcore T200), the sheet's axis reads Binding [nm]
Procedure: as §1

Binder	binding result (Human IL-11 [1])	GMFI [2]	binding relative to anti-FLAG positive control [3] [%]	also measured
Humanised 3C6 clone VH 2.2/VL 2.2 (antibody, V domains shown, also called 3C6 VH2.2/VL2.2) VH: EVQLVQSGAEVKKPGASVKISCKASGYTFTDYNMDWVKQAPGQRLEWIGDINPHNGGPIYNQKFTGRATLTVDKSASTAYMELSSLRSEDTAVYYCARGELGHWYFDVWGQGTTVTVSS VL: DIVLTQSPASLALSPGERATLSCRASKSVSTSGYSYIHWYQQKPGQAPRLLIYLASNLDSGVPARFSGSGSGTDFTLTISSLEEEDFATYYCQHSRDLPPTFGQGTKLEIK	binds	–	–	–
Humanised 3C6 clone VH 2.2/VL 2.4 (antibody, V domains shown) VH: EVQLVQSGAEVKKPGASVKISCKASGYTFTDYNMDWVKQAPGQRLEWIGDINPHNGGPIYNQKFTGRATLTVDKSASTAYMELSSLRSEDTAVYYCARGELGHWYFDVWGQGTTVTVSS VL: EIVLTQSPATLSLSPGERATLSCRASKSVSTSGYSYIHWYQQKPGQAPRLLIYLASNLDSGVPARFSGSGSGTDFTLTISSLEPEDFATYYCQHSRDLPPTFGQGTKLEIK	binds	–	–	–
Humanised 3C6 clone VH 2.3/VL 2.3 (antibody, V domains shown) VH: EVQLVQSGAEVKKPGASVKISCKASGYTFTDYNMDWVRQAPGQRLEWIGDINPHNGGPIYNQKFTGRVTLTVDKSASTAYMELSSLRSEDTAVYYCARGELGHWYFDVWGQGTTVTVSS VL: DIVLTQSPATLSLSPGERATLSCRASKSVSTSGYSYIHWYQQKPGQAPRLLIYLASNLDSGVPARFSGSGSGTDFTLTISSLEPEDFATYYCQHSRDLPPTFGQGTKLEIK	binds	–	–	–
Humanised 3C6 clone VH 2.3/VL 2.2 (antibody, V domains shown) VH: EVQLVQSGAEVKKPGASVKISCKASGYTFTDYNMDWVRQAPGQRLEWIGDINPHNGGPIYNQKFTGRVTLTVDKSASTAYMELSSLRSEDTAVYYCARGELGHWYFDVWGQGTTVTVSS VL: DIVLTQSPASLALSPGERATLSCRASKSVSTSGYSYIHWYQQKPGQAPRLLIYLASNLDSGVPARFSGSGSGTDFTLTISSLEEEDFATYYCQHSRDLPPTFGQGTKLEIK	binds	–	–	–
Humanised 3C6 clone VH 2.2/VL 2.1 (antibody, V domains shown, T0003 heads the columns Heavy chain and Light chain, but the entries are variable domains; also called 3C6 VH2.2/VL2.1) VH: EVQLVQSGAEVKKPGASVKISCKASGYTFTDYNMDWVKQAPGQRLEWIGDINPHNGGPIYNQKFTGRATLTVDKSASTAYMELSSLRSEDTAVYYCARGELGHWYFDVWGQGTTVTVSS VL: DIVLTQSPASLALSPGERATLSCRASKSVSTSGYSYIHWYQQKPGQPPRLLIYLASNLDSGVPARFSGSGSGTDFTLNIHPLEEEDFATYYCQHSRDLPPTFGQGTKLEIK	binds	–	–	–
Humanised 3C6 clone VH 2.2/VL 2.3 (antibody, V domains shown) VH: EVQLVQSGAEVKKPGASVKISCKASGYTFTDYNMDWVKQAPGQRLEWIGDINPHNGGPIYNQKFTGRATLTVDKSASTAYMELSSLRSEDTAVYYCARGELGHWYFDVWGQGTTVTVSS VL: DIVLTQSPATLSLSPGERATLSCRASKSVSTSGYSYIHWYQQKPGQAPRLLIYLASNLDSGVPARFSGSGSGTDFTLTISSLEPEDFATYYCQHSRDLPPTFGQGTKLEIK	binds	–	–	–
BSN-3C6 (antibody, V domains shown, Mouse monoclonal antibody from a hybridoma; also called A6; anti-IL-11 antibody clone BSN-3C6) VH: EVQLQQSGPELVKPGASVKIPCKASGYTFTDYNMDWVKQSHGKSLEWIGDINPHNGGPIYNQKFTGKATLTVDKSSSTAYMELRSLTSEDTAVYYCARGELGHWYFDVWGTGTTVTVSS VL: DIVLTQSPASLAVSLGQRATISCRASKSVSTSGYSYIHWYQQKPGQPPKLLIYLASNLDSGVPARFSGSGSGTDFTLNIHPVEEEDAATYYCQHSRDLPPTFGGGTKLEIK	–	222000	176	koff (Human IL-11 [4]): 0.000635 s⁻¹; kon (Human IL-11 [4]): 153000 M⁻¹ s⁻¹; Kd (Mouse IL-11 [5]): 2.38 nM; Kd (Human IL-11 [6]): 4.14 nM; koff (Mouse IL-11 [7]): 0.000112 s⁻¹; kon (Mouse IL-11 [7]): 46900 M⁻¹ s⁻¹
BSN-2E1 (antibody, V domains shown) VH: QVQLQESGPELVKPGASVKIPCKASGYTFTDYNMDWVKQSHGKSLEWIGDINPHNGGPIYNQKFTGKATLTVDKSSSTAYMELRSLTSEDTAVYYCARGELGHWYFDVWGTGTTVTVSS VL: NIVMTQSPKSMSMSVGERVTLTCKASENVVTYVSWYQQKPEQSPKLLIYGASNRYTGVPDRFTGSGSATDFTLTISSVQAEDLADYHCGQGYSYPYTFGGGTKLEIK	–	206000	164	–
BSN-7D4 (antibody, V domains shown, Mouse monoclonal antibody from a hybridoma; also called A12) VH: EVQLQQSGPELVKPGASVKISCKASGYTFTDYNMDWVKQSQGKRLEWIGDINPNYGGTIYNQKFKGKATLTVDKSSSTAYMELRSLTSEDTTVYYCTRGELGHWYFDVWGTGTTVTVSS VL: DIVLTQSPPSLTVSLGQRATISCRASKSVSASGYSYMHWYQQKPGQPPKLLIYLTSNLESGVPARFSGSGSGTDFTLNIHPVEEEDAATYYCQHSWDLPPTFGGGTKLEIK	–	221000	176	–
BSN-2G6 (antibody, V domains shown) VH: QVQLQESGPELVKPGASVKIPCKASGYTFTDYNMDWVKQSHGKSLEWIGNINPDNGGTIYNQKFKGKATLTVDKSSSTAYMELRSLTSEDTAVYFCAREGPYGYTWFAYWGQGTLDTVSA VL: DILLTQSPAILSVSPGERVSFSCRASQSIGTSIHWYQQRTNGSPRLLIKYASESISGIPSRFSGSGSGTDFTLSINSVESEDIADYYCQQSNSWPLTFGAGTKLELK	–	28600	23	–
BSN-1H2 (antibody, IgG1, V domains shown, also called A1) VH: QAQLQQSGAELARPGASVKLSCKASGYTFTSYGITWVKQRTGQGLEWIGDIYPRSGNIYYNENFKGEATLTADKSSSTAYMQLSRLTSEDSAVYFCARSGWEGWFAYWGQGTLVTVSV VL: DIVMTQSHKFMSTSVGDRVNITCKASQDVGSAVVWYQQKPGQSPKVLIYWASTRHTGVPDRFTGSGSGTDFTLTISNVQSEDLADYFCQQYSSYRTFGGGTKLEIK	–	197000	157	–
BSN-5B8 (antibody, V domains shown) VH: QVQLQQSGAELARPGTSVKLSCKASGYTFTSYGISWVKQRTGQGLEWIGEIYPRSSNTYYNEKFKGKATLTADKSSSTAYMELRSLTSEDSADYFCARANWVGYFDVWGTGTTVTVSS VL: DIVMTQSHKFMSTSVGDRVTITCKASQDVGTAVAWYQQKPGQSPKLLIYWASTRLTGVPDRFTGSGSGTYFTLTINNVQSEDLADYFCQQYSSYRTFGGGTKLEIK	–	236000	188	–
